Data: PMC9482650, “Quantitative fragmentomics allow affinity mapping of interactomes” (Nature Communications, 2022)

Tests used:
Assay in all cases: holdup assay
Parameters in all cases: key: below the threshold = too weak to quantify, mostly under pKd 3.1 to 4
Settings in all cases: plain residues with an end cap or a label only (N-terminal biotin on a linker: ttds)
Q9NR12 = target: Q9NR12
Q9UMS6 = target: Q9UMS6
Q96JB8 = target: Q96JB8
Q9H190 = target: Q9H190
Q9ULJ8 = target: Q9ULJ8
Q13009 = target: Q13009
Q70Z35 = target: Q70Z35
Q6ZWJ1 = target: Q6ZWJ1
O00560 = target: O00560
Q9C0E4 = target: Q9C0E4
O43166 = target: O43166
O60759 = target: O60759
O75970 = target: O75970
Q9UDY2 = target: Q9UDY2
Q8IUC4 = target: Q8IUC4
O00233 = target: O00233
Q96JY6 = target: Q96JY6
Q96SB3 = target: Q96SB3
Q96HC4 = target: Q96HC4
Q8TEW0 = target: Q8TEW0
PTPN13_2, Q12923 = target: PTPN13_2, Q12923
Q92614 = target: Q92614
O15021 = target: O15021
Q96FS4 = target: Q96FS4
Q9Y3R0 = target: Q9Y3R0
Q9P227 = target: Q9P227
Q5TCQ9 = target: Q5TCQ9
Q8TDM6 = target: Q8TDM6
Q8TB45 = target: Q8TB45
Q12923 = target: Q12923
Q13368 = target: Q13368
LNX2_1, Q8N448 = target: T1, LNX2_1, Q8N448
T1 sequence (Q8N448 228-328, limits assumed, looked up): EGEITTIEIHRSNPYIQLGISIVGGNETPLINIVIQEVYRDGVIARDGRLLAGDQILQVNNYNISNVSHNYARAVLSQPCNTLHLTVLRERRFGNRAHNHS

Measured: pKd

PTPN13_2, Q12923, sequence (Q12923 1363-1462): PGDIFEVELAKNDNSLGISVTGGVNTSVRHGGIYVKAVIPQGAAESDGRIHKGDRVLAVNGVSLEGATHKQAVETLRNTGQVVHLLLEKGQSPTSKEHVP

SHSSKGETAV [FZD7, O75084]
not listed: LNX2_1, Q8N448
below the threshold: all other assays above

SGGKRKETLV [NET1, Q7Z628]
below the threshold: PTPN13_2, Q12923 | LNX2_1, Q8N448
